Our source for the FcRn Binding ratio Variant / WT values is US20090041770A1.

This assay has as its target human FcRn fused to a His-tag and glutathione S transferase (FcRn-His-GST), complex of FcRn heavy chain with beta-2-microglobulin (human) (UniProt P55899). Nature of the assay: AlphaScreen competition.

As for N276L (antibody), the FcRn Binding ratio Variant / WT is 1.21. The value for N276V (antibody) was 1.27. The value for F241W/F243W/V262A/V264A (antibody) was 1.91; that for L235T (antibody) was 1.65. With E272P (antibody) the figure was 2.17; with F241Y/F243Y/V262T/V264T (antibody), 1.89; with Y300K (antibody), 1.01.

Consider P238T (antibody), for which the FcRn Binding ratio Variant / WT was found to be 1.12. For the substance L234R (antibody), the FcRn Binding ratio Variant / WT was 1.19. With Y300A (antibody) the figure was 1.04; with D265P (antibody), 1.18; with G237L (antibody), 5.91. With I332D (antibody) the figure was 1.75; with S298F (antibody), 1.15.

As for T225K (antibody), the FcRn Binding ratio Variant / WT was 5.68.

With G236W (antibody), the FcRn Binding ratio Variant / WT is 1.52. With L328N/I332E (antibody) the figure was 1.18; with K320H (antibody), 1.13; with G236T (antibody), 1.56. T223K (antibody): the FcRn Binding ratio Variant / WT came out at 2.97. With T299Y (antibody) the figure was 3.85; with F241E (antibody), 1.09; with T260H (antibody), 7.3. Regarding T335L (antibody), the FcRn Binding ratio Variant / WT stood at 1.5. Turning to A327H (antibody), the FcRn Binding ratio Variant / WT is 1.29.

In the case of V303Y (antibody), the FcRn Binding ratio Variant / WT is 1.15. With G236D (antibody) the figure was 1.53; with “S239E/V264I/S298A/A330Y/I332E (antibody)”, 10.1; with A330G (antibody), 1.01. The value for G236I (antibody) was 1.33.

On to A330W (antibody), for which the FcRn Binding ratio Variant / WT is 1.02. With Y278S (antibody) the figure was 1.23; with A330F (antibody), 25.3. Turning to R292Y (antibody), the FcRn Binding ratio Variant / WT was found to be 1.36. With L328W (antibody) the figure was 1.35; with V282E (antibody), 1.91. The value for N276H (antibody) was 1.19; that for Y300V (antibody) was 1.09.

V264I (antibody): the FcRn Binding ratio Variant / WT was determined as 1.32.

On to A327L (antibody), for which the FcRn Binding ratio Variant / WT is 1.55.

For the substance V264I/A330L/I332E (antibody), the FcRn Binding ratio Variant / WT is 1.13. On to Y296L (antibody), for which the FcRn Binding ratio Variant / WT was 2.78. With P291I (antibody) the figure was 1.15; with T335H (antibody), 1.16; with E233Y (antibody), 1.86. Consider T335P (antibody), for which the FcRn Binding ratio Variant / WT turned out to be 1.45. With S267L/A327S (antibody) the figure was 1.05. With A327M (antibody) the figure was 1.08; with K274N (antibody), 1.26; with Y300N (antibody), 1.14.

Turning to S239D/I332D (antibody), the FcRn Binding ratio Variant / WT was determined as 1.12. The value for G237K (antibody) was 1.47; that for E269V (antibody) was 1.38. For L234D (antibody), the FcRn Binding ratio Variant / WT was determined as 1.54. Turning to D265F/N297E/I332E (antibody), the FcRn Binding ratio Variant / WT worked out at 1.38. With S267K (antibody) the figure was 1.7; with V262E (antibody), 9.27. With L328R (antibody) the figure was 1.82; with S239L (antibody), 4.6.

As to E233G (antibody), the FcRn Binding ratio Variant / WT stood at 2.09. With D249Y (antibody) the figure was 2.57. With V282Y (antibody) the figure was 1.92; with P238D (antibody), 1.03; with E283K (antibody), 2.74.

T223E (antibody): the FcRn Binding ratio Variant / WT came out at 2.04.

As to P238I (antibody), the FcRn Binding ratio Variant / WT worked out at 1.44. The value for S298T (antibody) was 2.13; that for P271T (antibody) was 3.88; that for V303E (antibody) was 1.63. Consider S324G (antibody), for which the FcRn Binding ratio Variant / WT was 2.74. With P291H (antibody) the figure was 2.56; with E283H (antibody), 6.25; with L234G (antibody), 2.54. The value for S267E (antibody) was 2.24. The value for G237D (antibody) was 1.84; that for T299H (antibody) was 2.03; that for L328E/I332E (antibody) was 1.44. As to L234V (antibody), the FcRn Binding ratio Variant / WT came out at 1.45. With N325M (antibody) the figure was 1.43; with V264F (antibody), 1.07. On to Y300E (antibody), for which the FcRn Binding ratio Variant / WT was determined as 1.27. With E283Y (antibody) the figure was 1.42. The value for F241W/F243W (antibody) was 1.12. For the substance E258Y (antibody), the FcRn Binding ratio Variant / WT amounted to 1.07. The value for G237I (antibody) was 1.01. With S239E/V264I/I332E (antibody) the figure was 2.71. With H285E (antibody) the figure was 1.93; with S239D/D265H/N297D/I332E (antibody), 1.26.

As for E333F (antibody), the FcRn Binding ratio Variant / WT turned out to be 1.96.

Turning to G236V (antibody), the FcRn Binding ratio Variant / WT amounted to 1.35.

Consider P228K (antibody), for which the FcRn Binding ratio Variant / WT is 1.55. The value for N286Y (antibody) was 1.45; that for S239D/N297D/I332E (antibody) was 3.09; that for V240T (antibody) was 2.61.

As to I332E (antibody), the FcRn Binding ratio Variant / WT came out at 1.32. Turning to Y300G (antibody), the FcRn Binding ratio Variant / WT amounted to 1.07. The value for S239T (antibody) was 1.12. With T335W (antibody) the figure was 1.35; with K320N (antibody), 2.01; with S239Q/I332E (antibody), 1.33. The value for R292E (antibody) was 1.45; that for G236M (antibody) was 1.6. Turning to G236A (antibody), the FcRn Binding ratio Variant / WT was found to be 1.75. The value for P271A (antibody) was 1.01. With E233R (antibody) the figure was 1.05.

As to E272W (antibody), the FcRn Binding ratio Variant / WT was 1.82. Take H224E (antibody): the FcRn Binding ratio Variant / WT worked out at 5.11.

As to D270I (antibody), the FcRn Binding ratio Variant / WT is 1.23. With P238K (antibody) the figure was 5.01; with P238L (antibody), 1.71. On to P238H (antibody), for which the FcRn Binding ratio Variant / WT stood at 1.46. With L234I (antibody) the figure was 1.26. The value for S298H (antibody) was 3.99; that for F241L/V262I (antibody) was 1.37. With F243E (antibody) the figure was 1.14; with K274T (antibody), 1.08.

On to E269M (antibody), for which the FcRn Binding ratio Variant / WT stood at 1.11.

Regarding S239Q/I332Q (antibody), the FcRn Binding ratio Variant / WT was found to be 1.04. The value for T335V (antibody) was 1.25. The value for K274E (antibody) was 1.05. With P228Y (antibody) the figure was 1.45; with E272Y (antibody), 2.08. With E333L (antibody), the FcRn Binding ratio Variant / WT is 1.03. In the case of P232K (antibody), the FcRn Binding ratio Variant / WT is 1.56. Regarding P329K (antibody), the FcRn Binding ratio Variant / WT came to 1.27. The value for Y296I (antibody) was 1.71; that for E318L (antibody) was 3.61. The value for V302I (antibody) was 2.44.

With T225E (antibody), the FcRn Binding ratio Variant / WT was found to be 4.89. The value for P271Y (antibody) was 1.48; that for E269G (antibody) was 1.34; that for G237W (antibody) was 1.2. For G281Y (antibody), the FcRn Binding ratio Variant / WT came out at 1.46.

As for L328G (antibody), the FcRn Binding ratio Variant / WT amounted to 1.16. With P227K (antibody) the figure was 1.45; with A330Y/I332E (antibody), 1.53.
